Results on 2 substances are retold here after article PMC11263391, “Molecular insights into degron recognition by CRL5^ASB7 ubiquitin ligase” (Nature Communications, 2024).

Experiment [1] addresses ASB7 R160A mutant in complex with Elongin B/C (human) (UniProt Q9H672). Nature of the experiment: ITC; peptide (0.8–4 mM) titrated into the ASB7 complex (39–156 µM); 16 °C; 20 mM Tris-HCl pH 7.5, 150 mM NaCl; MicroCal PEAQ-ITC.
For experiment [2], the target named is ASB7 Phe182 alanine mutant in complex with Elongin B/C (human) (UniProt Q9H672). The experiment is described as above.
For experiment [3], the target named is ASB7 Arg185-to-alanine mutant in complex with Elongin B/C (human) (UniProt Q9H672). Described as above.
Experiment [4] deals with ASB7 D116A mutant in complex with Elongin B/C (human) (UniProt Q9H672). Described as above.
Experiment [5] addresses ASB7 with Trp118 in ANK3 or Phe82 in ANK4 replaced with alanine. The description is as above.
For experiment [6], the target named is ASB7-Elongin B-Elongin C ternary complex (wild-type ASB7, residues 11-318) (human) (UniProt Q9H672). As to the kind of experiment: ITC; peptide in the syringe titrated into ASB7-Elongin B/C in the cell; MicroCal PEAQ-ITC, 16 °C, 20 mM Tris-HCl pH 7.5, 150 mM NaCl; 39–156 μM protein, 0.8–4 mM peptide; repeated three times, mean ± SD. (In general: Isothermal titration calorimetry measures the heat released or taken up as one component is titrated into another.)

Turning to LZTS1-degron 23-residue peptide, the fold decrease in binding affinity against wild-type ASB7 is 3 fold in experiment [1], 3 fold in experiment [2], 4 fold in experiment [3] and 10 to 30 fold in experiment [5]. The fold reduction in binding against wild-type ASB7 in experiment [4] is 7 fold.
By Kd is commonly meant the constant that tells how readily two partners part at equilibrium. Read a high Kd as weaker binding. What is called stoichiometry N is a count of units in the complex or per binding partner. In experiment [6], LZTS1 degron peptide, 22 residues (…) had a Kd of 600 nM and a stoichiometry N of 0.75.
